Source: patent US20250269003A1, “NANO-ENHANCED VACCINE” (University of Virginia Patent Foundation, priority 2022, published 2025)

Key:
[1] = Ideal pH range for peptide stability and dissolution; assay type: physicochemical; details: pH range required for stability and dissolution of the peptide
Description: (§1) Encapsulation of Melanoma Peptides within Nanoliposomes. The six melanoma peptides that induce melanoma-reactive CD4^+ T cells in patients as well as their protein epitope and ideal pH range for solubility are provided in Table 1. A neutral formulation was initially chosen to encapsulate all peptides and then, through an iterative process, modified formulations to optimize encapsulation efficiencies for several of the peptides. Through this process, three different nanoliposome formulations (neutral, cationic, and anionic) suitable for distinct peptides were identified. However, all of the presently disclosed formulations contained the same base lipid components, including 1,2-distearoyl-sn-glycero-3-phosphocholine (DSPC); 1,2-Dioleoyl-sn-glycero-3-phosphoethanolamine (DOPE); 1,2-distearoyl-sn-glycero-3-phosphoethanolamine-N-[methoxy(polyethylene glycol)-2000] (ammonium salt) (PEG2000PE); KDO2; cholesterol; and a fluorophore (either rhodamine or 1,1′-Dioctadecyl-3,3,3′,3′-Tetramethylindodicarbocyanine, 4-Chlorobenzenesulfonate Salt (DiD)). Each formulation contained DSPC and DOPE at a 2.14:1 molar ratio to form a stable, spherical nanoparticle. In addition, cholesterol at a 30 molar percent was incorporated to increase rigidity and to reduce leakiness. PEG(2000)-PE at 2.5 molar percent was incorporated for biological stability, KDO2 was added to all formulations at 0.1 molar percent, and a fluorescent probe (rhodamine or DiD) was added at 0.2 molar percent for subsequent biodistribution imaging studies. Keeping the molar ratios of these key components constant, dihexadecyl phosphate (DHP) was incorporated at 10 molar percent for the anionic formulation and positively charged lipid 1,2-dioleoyl-3-trimethylammonium-propane (chloride salt) (DOTAP) at 7 molar percent for the cationic formulation. The lipid mixtures were then dried down in a nitrogen blower for roughly 2 hours until all of the chloroform was evaporated. Then, the peptide solutions, (or 1×PBS for the “ghost” formulation), was added to the dried down lipids, the tubes were then vortexed and placed in a heat shaker at 60° C. for 2 hours, followed by sonication in a 60° C. sonic bath for roughly five minutes. After sonication, the liposomes were extruded through a 100-nanometer pore membrane eleven times to create uniformly sized liposomes. The extruded liposomes were subsequently run through a Sepharose gel bead column to separate the liposomal drugs from the free drug. The solution was analyzed using Dynamic Light Scattering (DLS; polydispersity and average hydrodynamic diameter of particles in solution), and mass spectrometry.
(§2) To further ensure optimal encapsulation efficiency of the MHPs, distinct dissolution buffers tailored to each peptide's optimal pH range and previously optimized for in vivo injection of the free peptides into patients enrolled in earlier clinical studies were utilized. Specifically, for the neutral peptide formulations, 1.33 mg/ml sodium bicarbonate (NaHCO3) in a 1:2 solution of lactated Ringers solution (LR) and water respectively (B1); for the cationic formulation, 5 mg/ml NaHCO3 in water (B2); for the WNR anionic formulation, 1 mg/ml NaHCO3 in water (B3); and for the TSYVKVLHHMVKISG (TSY; SEQ ID NO: 1) anionic formulation, 1:9 ratio of 2-(N-morpholino) […] (MES) buffer and water (B4).

[2] = Peptide encapsulation within nanoliposomes (mass spectrometry); assay type: physicochemical; details: for Original mass encapsulation: neutral formulation and 1X PBS; for Optimized mass encapsulation: new liposome formulation (charge and buffer B1-B4) keeping optimal pH, full vaccine, n = 3 separate experiments in triplicate; for Encap. Efficiency: optimized formulation, based upon initial 500 μg/ml peptide concentration; for Encap. improvement: optimized versus original mass encapsulation
Description: as §1, §2
Each of the six Melanoma Helper Peptides (6MHP) were initially incorporated in a neutral liposome formulation containing: (DSPC); (DOPE); (PEG2000PE); KDO2; cholesterol; and a fluorophore in ratios of 4.60:2.14:0.25:0.01:3.00:0.02 respectively (see Table 2). After quantifying initial encapsulation masses, an iterative approach was utilized to improve encapsulation via modifying the charge and lipid ratios of the liposomal formulation as well as the buffer for the peptide. The proportional improvements in encapsulation as well as the encapsulation efficiencies are depicted in Table 3.

SIN lymphocytes = assay: Lymphocyte viability, live-dead marker and flow cytometry; assay type: cell-based, human; details: patient SIN samples; free TSY compared with nanoliposomal KDO2/TSY
Description: (§3) Ex Vivo Lymphocyte Stimulation using Immunogenic TSY encapsulated nanoliposomes. Freshly obtained (cryopreserved) peripheral blood mononuclear cells (PBMC) and lymphocytes from the sentinel immunized nodes (SIN) of two patient donors (under IRB protocols, clinical trial Mel41 (NCT00089219; IRB #10464; Slingluff et al., 2008b) were utilized to assess CD4^+ T cell proliferation after treatment with the anionic TSY (MAGE-3281-295 peptide; Table 1) MIP-KDO2 nanoliposome. Firstly, a cell viability study was performed using a live-dead marker and flow cytometry to ensure that cell viability was not impacted by the presence of either the peptides or the liposomes. In this study, SIN lymphocytes from the two patient donors (SIN1 and SIN2) were treated with a variety of free peptides and liposome combinations. […] Cells were acquired on a FACSCANTO™ II flow cytometer (BD Biosciences) maintained by the Carter Immunology Center at the University of Virginia and the data analyzed using FlowJo software (version 10; BD Biosciences).
(§4) Using blood samples from melanoma patients who had previously been vaccinated with a 6MHP vaccine on the Mel41 trial and had developed a robust CD4^+ T cell immune response to the TSY antigen (Slingluff et al., 2008b), lymphocyte viability and CD4^+ T cell proliferation to the TSY nano-formulations ex vivo were analyzed. […]

[3] = system: CD4^+ T cells from sentinel immunized nodes (SIN1, SIN2); assay: CFSE dye-dilution CD4+ T cell proliferation assay, sentinel immunized node cells; assay type: cell-based, human; details: SIN1 and SIN2 donor cells, 2 μg/mL peptide, 5 days
Description: as §3, §4

Sequence	Ideal pH range [1]	Original mass encapsulation [2] [µg/mL]	Optimized mass encapsulation [2] [µg/mL]	Encap. Efficiency [2] [%]	Encap. improvement [2] [X]	cell viability (SIN lymphocytes)	CD4^+ T cell proliferation (CFSE dilution) [3]
WNRQLYPEWTEAQRLD	7.0-8.0	4.81 ± 0.09	7.64 ± 0.99	1.53	1.59		
TSYVKVLHHMVKISG (listed as Homo sapiens) [melanoma helper peptide, amino acids 281-295 of human MAGE-3]	5.0-5.5	0.17 ± 0.001	141.35 ± 2.18	28.27	831	no discernable differences in cell viability	expected CD4^+ T cell proliferation response was observed
AQNILLSNAPLGPQFP (listed as Homo sapiens) [melanoma helper peptide, amino acids 56-70 of human tyrosinase]	8.5-9.0	0.02 ± 0.005	6.25 ± 1.13	1.25	312		
FLLHHAFVDSIFEQWLQRHRP (listed as Homo sapiens) [melanoma helper peptide, amino acids 386-406 of human tyrosinase]	6.0-8.0	28.15 ± 2.05	58.61 ± 4.96	11.72	2.08		
LLKYRAREPVTKAE (listed as Homo sapiens) [melanoma helper peptide, amino acids 121-134 of human MAGE-1,2,3,6]	6.0-8.0	34.56 ± 0.69	57.26 ± 14.39	11.45	1.66		
RNGYRALMDKSLHVGTQCALTRR (listed as Homo sapiens) [melanoma helper peptide, amino acids 51-73 of human Melan-A/MART-1]	6.0-8.0	22.37 ± 0.30	19.18 ± 6.36	3.29	0.85		
